One molecule from PMC11569188 (2024) can be followed below.

The target of this test is Grb2 SH2 domain (BAP-tagged) (UniProt P62993 60-152, biotin on the BAP tag (in vivo biotinylation)). Nature of the test: FP.
Grb2 SH2 domain (BAP-tagged), sequence (P62993 60-152): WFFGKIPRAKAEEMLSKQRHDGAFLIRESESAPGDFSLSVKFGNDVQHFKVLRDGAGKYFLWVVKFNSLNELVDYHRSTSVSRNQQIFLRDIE

B1: Affimer Grb2 A4 (designed binder)
chain: MASNSLEIEELARFAVDEHNKKENALLEFVRVVKAKEQHVLWENAGPTMYYLTLEAKDGGKKKLYEAKVWVKHTRYEYFVYNFKELQEFKPVGDAAAAHHHHHHHH
In general, IC50 refers to the concentration that inhibits the measured activity by half. Regarding B1, it took 770 nM to reach half-maximal inhibition (IC50).
